In PMC5976663, “Mapping of Adenovirus of serotype 3 fibre interaction to desmoglein 2 revealed a novel ‘non-classical’ mechanism of viral receptor engagement” (Scientific Reports, 2018):

B1: N-terminal His-tagged recombinant Ad3 fibre knob (His-Ad3K) (domain or fragment)
chain: NSIALKNNTLWTGPKPEANCIIEYGKQNPDSKLTLILVKNGGIVNGYVTLMGASDYVNTLFKNKNVSINVELYFDATGHILPDSSSLKTDLELKYKQTADFSARGFMPSTTAYPFVLPNAGTHNENYIFGQCYYKASDGALFPLEVTVMLNKRLPDSRTSYVMTFLWSLNAGLAPETTQATLITSPFTFSYIREDD
notes: human adenovirus serotype 3 (HAd3) fibre protein, knob, Asn124 to Asp319 of the full-length protein, GenBank ABB17809.1; The printed GenBank entry holds; also called HAd3 fibre knob; trimeric knob; source: E. coli Rosetta(DE3)pLysS, pETDuet-1; purified (His GraviTrap, Superdex 200); also co-expressed with MBP-DSG2 constructs, in lysate; not shown: His6, N-terminal, kept

Columns and labels:
[1] = molecular target: B1; assay: SEC-MALS; 50 uL at 1 mg/mL on Superdex 200 Increase 10/300 GL, 150 mM NaCl, 3 mM CaCl2, 10 mM Tris-Cl pH 8.0, 0.5 mL/min; co-expressed and co-purified MBP-free complex, and His-Ad3K alone; details: both partners purified
[2] = molecular target: B1; assay: AUC; sedimentation velocity (headed SE-AUC), 42,000 rpm, 20 °C, 3 mM CaCl2, 10 mM Tris pH 8.0, 150 mM NaCl; c(s) by SedFit; co-purified MBP-free complex, and His-Ad3K alone; two concentrations; details: both partners purified
[3] = molecular target: the molecule itself; assay: SEC-MALS; 50 uL at 1 mg/mL on Superdex 200 Increase 10/300 GL, 150 mM NaCl, 3 mM CaCl2, 10 mM Tris-Cl pH 8.0, 0.5 mL/min; co-expressed and co-purified MBP-free complex, and His-Ad3K alone

Binder | stoichiometry N [1] | stoichiometry N [2] | stoichiometry N [3]
DSG2 EC2-3 after MBP removal (digested DSG2 EC2-3, bacterial) (domain or fragment, human, UniProt Q14126 149-386, looked up, Theoretical mass 27.8 kDa after TEV cleavage; not glycosylated (bacterial); also called MBP-free EC2-3; source: E. coli Rosetta(DE3)pLysS, co-expressed with His-Ad3K; co-purified (His GraviTrap), TEV-cleaved, second His GraviTrap, Superdex 200; not shown: MBP, N-terminal, cleaved) VLDINDNEPVFTQDVFVGSVEELSAAHTLVMKINATDADEPNTLNSKISYRIVSLEPAYPPVFYLNKDTGEIYTTSVTLDREEHSSYTLTVEARDGNGEVTDKPVKQAQVQIRILDVNDNIPVVENKVLEGMVEENQVNVEVTRIKVFDADEIGSDNWLANFTFASGNEGGYFHIETDAQTNEGIVTLIKEVDYEEMKNLDFSVIVANKAAFHKSIRSKYKPTPIPIKVKVKNVKEGI | 1 DSG2 EC2-3 per His-Ad3K trimer | 1 receptor per trimeric knob | –
B1 | – | – | 3
